Two substances from publication PMC11783328 can be followed below.

Some results are limits rather than exact numbers.

Assay [1] addresses 12A12 germline (gl-12A12). The assay is described as follows: SPR. The settings on record: antibody dilution series, colour key 0.98-1000 nM; KD1 fitted by bivalent modeling; parent: ND.
The target of another assay is 3BNC60 mature. Briefly: SPR. The settings on record: antibody dilution series, colour key 0.98-1000 nM; KD1 fitted by bivalent modeling.
The target of assay [2] is PGV19 germline (gl-PGV19). The assay is described as follows: SPR. The settings on record: antibody dilution series, colour key 0.98-1000 nM; KD1 fitted by bivalent modeling.
Assay [3] addresses VRC01 germline (gl-VRC01). Briefly: SPR. The settings on record: antibody dilution series, colour key 0.98-1000 nM; KD1 fitted by bivalent modeling.
For assay [4], the target named is gl-3BNC60 IgG (inferred germline precursor of 3BNC60). Briefly: SPR. The settings on record: antibody dilution series, colour key 0.98-1000 nM; KD1 fitted by bivalent modeling; parent: ND.
In assay [5] the target is BG505 SOSIP.v4.1 GT1.1 trimer (BG505 SOSIP germline trimer 1.1) (HIV-1 (isolate BG505)) (UniProt Q2N0S6). The assay is described as follows: SPR; Biacore 3000; His-tagged GT1 and GT1.1 trimers captured in parallel flow cells, IgG injected from 1 μM in two- or four-fold dilutions; association 300 s, dissociation 600 s, 50 uL/min; bivalent model.

Chain of gl-3BNC60 IgG (inferred germline precursor of 3BNC60) (antibody) (VH): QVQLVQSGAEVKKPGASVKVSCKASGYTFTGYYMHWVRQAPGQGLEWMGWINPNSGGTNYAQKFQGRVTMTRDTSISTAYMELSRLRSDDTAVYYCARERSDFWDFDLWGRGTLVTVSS
Chain of gl-3BNC60 IgG (inferred germline precursor of 3BNC60) (antibody) (VL): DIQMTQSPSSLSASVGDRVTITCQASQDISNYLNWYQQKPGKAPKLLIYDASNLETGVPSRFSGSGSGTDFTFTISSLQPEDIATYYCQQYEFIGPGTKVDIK

In the case of “BG505 SOSIP.v4.1-GT1 trimer (from UniProt Q2N0S6) E275K”, the Kd in assay [1] was 200 nM; with 3BNC60 mature it was < 0.1 nM; in assay [2], 24 nM; in assay [3], 360 nM; in assay [4], 780 nM.
In assay [5], “gl-3BNC60 IgG (inferred germline precursor of 3BNC60) (antibody)” had a KD1 (bivalent model) of 780 nM.
